# From CN117255804A (GENSCRIPT NANJING CO LTD, dated 2023)
# Target: T1, 人4-1BB (human, UniProt Q07011 24-255)
# T1 construct: whole, on cells; also called TNFRSF9; CD137
# Assay: FACS on HEK293 cells expressing human 4-1BB, 1.0 ug/ml
# T1 sequence (Q07011 24-255): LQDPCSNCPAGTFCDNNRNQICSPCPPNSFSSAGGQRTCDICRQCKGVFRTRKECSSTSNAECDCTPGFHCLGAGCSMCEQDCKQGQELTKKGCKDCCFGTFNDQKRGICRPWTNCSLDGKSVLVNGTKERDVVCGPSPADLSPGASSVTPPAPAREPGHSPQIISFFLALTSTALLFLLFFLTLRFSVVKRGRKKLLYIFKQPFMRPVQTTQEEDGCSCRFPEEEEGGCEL
row,Binder,binding result
1,"382A3E3-VH1-VL3 (antibody, IgG4, V domains shown, Humanized mAb; Only VH and VL are tied to it) VH: EVQLVESGGGLVQPGGSLRLSCAASGFTFSDYGMSWVRQAPGKGLEWVSFISNVAYGIFYADTVTGRFTISRDNAKNSLYLQMNSLRAEDTAVYYCARDELGRFDYWGQGTLVTVSS VL: DIQMTQSPSSLSASVGDRVTITCHVSQNINIWLSWYQQKPGKAPKLLIYKASNLHTGVPSRFSGSGSGTDFTLTISSLQPEDFATYYCQQGQTFPRTFGGGTKVEIK",binds
2,"379E7A6-VH1-VL2 (antibody, IgG4, V domains shown, Humanized mAb; Only VH and VL are tied to it) VH: EVQLLESGGGLVQPGGSLRLSCAASGFTFSDYGMAWVRQAPGKGLEWVSFISNVAYSKFYVDTVTGRFTISRDNSKNTLYLQMNSLRAEDTAVYYCARDELGRFPYWGQGTLVTVSS VL: DIQMTQSPSTLSASVGDRVTITCHVSHNINIWLNWYQQKPGKAPKLLIYKASNLHTGVPSRFSGSGSGTEFTLTISSLQPDDFATYYCQQGQTFPRTFGGGTKVEIK",binds
3,"382A3E3-VH1-VL5 (antibody, IgG4, V domains shown, Humanized mAb; Only VH and VL are tied to it) VH: EVQLVESGGGLVQPGGSLRLSCAASGFTFSDYGMSWVRQAPGKGLEWVSFISNVAYGIFYADTVTGRFTISRDNAKNSLYLQMNSLRAEDTAVYYCARDELGRFDYWGQGTLVTVSS VL: DIQLTQSPSFLSASVGDRVTITCHVSQNINIWLSWYQQKPGKAPKLLIYKASNLHTGVPSRFSGSGSGTEFTLTISSLQPEDFATYYCQQGQTFPRTFGGGTKVEIK",binds
4,"382A3E3-VH2-VL5 (antibody, IgG4, V domains shown, Humanized mAb; Only VH and VL are tied to it) VH: QVQLVESGGGVVQPGGSLRLSCAASGFTFSDYGMSWVRQAPGKGLEWVAFISNVAYGIFYADTVTGRFTISRDNSKNTLYLQMNSLRAEDTAVYYCAKDELGRFDYWGQGTLVTVSS VL: DIQLTQSPSFLSASVGDRVTITCHVSQNINIWLSWYQQKPGKAPKLLIYKASNLHTGVPSRFSGSGSGTEFTLTISSLQPEDFATYYCQQGQTFPRTFGGGTKVEIK",binds
5,"382A3E3-VH1-VL2 (antibody, V domains shown, Humanized mAb expressed in CHO-3E7) VH: EVQLVESGGGLVQPGGSLRLSCAASGFTFSDYGMSWVRQAPGKGLEWVSFISNVAYGIFYADTVTGRFTISRDNAKNSLYLQMNSLRAEDTAVYYCARDELGRFDYWGQGTLVTVSS VL: DIQMTQSPSTLSASVGDRVTITCHVSQNINIWLSWYQQKPGKAPKLLIYKASNLHTGVPSRFSGSGSGTEFTLTISSLQPDDFATYYCQQGQTFPRTFGGGTKVEIK",binds
6,"379E7A6-VH1-VL1 (antibody, IgG4, V domains shown, Humanized mAb; Only VH and VL are tied to it) VH: EVQLLESGGGLVQPGGSLRLSCAASGFTFSDYGMAWVRQAPGKGLEWVSFISNVAYSKFYVDTVTGRFTISRDNSKNTLYLQMNSLRAEDTAVYYCARDELGRFPYWGQGTLVTVSS VL: DIQMTQSPSSLSASVGDRVTITCHVSHNINIWLNWYQQKPGKAPKLLIYKASNLHTGVPSRFSGSGSGTDFTFTISSLQPEDIATYYCQQGQTFPRTFGGGTKVEIK",binds
7,"382A3E3-VH1-VL4 (antibody, IgG4, V domains shown, Humanized mAb; Only VH and VL are tied to it) VH: EVQLVESGGGLVQPGGSLRLSCAASGFTFSDYGMSWVRQAPGKGLEWVSFISNVAYGIFYADTVTGRFTISRDNAKNSLYLQMNSLRAEDTAVYYCARDELGRFDYWGQGTLVTVSS VL: DIQMTQSPSSLSASVGDRVTITCHVSQNINIWLSWYQQKPGKVPKLLIYKASNLHTGVPSRFSGSGSGTDFTLTISSLQPEDVATYYCQQGQTFPRTFGQGTKVEIK",binds
8,"367C3A3-VH1-VL2 (antibody, IgG4, V domains shown, Humanized mAb; Only VH and VL are tied to it) VH: QVQLVQSGSELKKPGASVKVSCKASGYTFTDYSMHWVRQAPGQGLEWMGWINTETGEPTYADDFKGRFVFSLDTSVSTAYLQISSLKAEDTAVYYCARYDYAMDYWGQGTLVTVSS VL: DIQMTQSPSTLSASVGDRVTITCKASQDVSSAVAWYQQKSGKAPKLLIYWASIRHTGVPSRFSGSGSGTEFTLTISSLQPDDFATYYCQQRYTTPPTFGGGTKVEIK",binds
9,"367C3A3-VH2-VL1 (antibody, IgG4, V domains shown, Humanized mAb; Only VH and VL are tied to it) VH: QVQLVQSGAEVKKPGASVKVSCKASGYTFTDYSMHWVRQAPGQRLEWMGWINTETGEPTYADDFKGRVTITRDTSASTAYMELSSLRSEDTAVYYCARYDYAMDYWGQGTLVTVSS VL: DIQMTQSPSSLSASVGDRVTITCKASQDVSSAVAWYQQKPGKAPKLLIYWASIRHTGVPSRFSGSGSGTDFTLTISSLQPEDFATYYCQQRYTTPPTFGGGTKVEIK",binds
10,"367C3A3-VH2-VL2 (antibody, IgG4, V domains shown, Humanized mAb; Only VH and VL are tied to it) VH: QVQLVQSGAEVKKPGASVKVSCKASGYTFTDYSMHWVRQAPGQRLEWMGWINTETGEPTYADDFKGRVTITRDTSASTAYMELSSLRSEDTAVYYCARYDYAMDYWGQGTLVTVSS VL: DIQMTQSPSTLSASVGDRVTITCKASQDVSSAVAWYQQKSGKAPKLLIYWASIRHTGVPSRFSGSGSGTEFTLTISSLQPDDFATYYCQQRYTTPPTFGGGTKVEIK",binds
